This is an account of results in publication PMC4510984 (Nature, 2015).

Changes are numbered by the printed parent chain. Names and notes keep the numbering of the source. Read-outs that look alike come from different tables or passages of the source.

Test in all cases: transmission electron microscopy
Data set [1] deals with the molecule itself.
Data set [2] deals with the molecule itself. The source holds these as a separate data set.
Data set [3] concerns the molecule itself. The source holds these as a separate data set.

B1: human phosphofructokinase-1, platelet isoform (PFKP), recombinant wild type (enzyme, UniProt Q01813-1 1-784, looked up)
chain: MDADDSRAPKGSLRKFLEHLSGAGKAIGVLTSGGDAQGMNAAVRAVVRMGIYVGAKVYFIYEGYQGMVDGGSNIAEADWESVSSILQVGGTIIGSARCQAFRTREGRLKAACNLLQRGITNLCVIGGDGSLTGANLFRKEWSGLLEELARNGQIDKEAVQKYAYLNVVGMVGSIDNDFCGTDMTIGTDSALHRIIEVVDAIMTTAQSHQRTFVLEVMGRHCGYLALVSALACGADWVFLPESPPEEGWEEQMCVKLSENRARKKRLNIIIVAEGAIDTQNKPITSEKIKELVVTQLGYDTRVTILGHVQRGGTPSAFDRILASRMGVEAVIALLEATPDTPACVVSLNGNHAVRLPLMECVQMTQDVQKAMDERRFQDAVRLRGRSFAGNLNTYKRLAIKLPDDQIPKTNCNVAVINVGAPAAGMNAAVRSAVRVGIADGHRMLAIYDGFDGFAKGQIKEIGWTDVGGWTGQGGSILGTKRVLPGKYLEEIATQMRTHSINALLIIGGFEAYLGLLELSAAREKHEEFCVPMVMVPATVSNNVPGSDFSIGADTALNTITDTCDRIKQSASGTKRRVFIIETMGGYCGYLANMGGLAAGADAAYIFEEPFDIRDLQSNVEHLTEKMKTTIQRGLVLRNESCSENYTTDFIYQLYSEEGKGVFDCRKNVLGHMQQGGAPSPFDRNFGTKISARAMEWITAKLKEARGRGKKFTTDDSICVLGISKRNVIFQPVAELKKQTDFEHRIPKEQWWLKLRPLMKILAKYKASYDVSDSGQLEHVQPWSV
For orientation: stoichiometry N means a count of units in the complex or per binding partner. Turning to B1, the “stoichiometry N” value in data set [1] amounted to 4; in data set [2], 2.

B2: PFKP-F649L (enzyme, human, UniProt Q01813-1 1-784, looked up)
chain: B1 chain with F649L
Regarding B2, the “stoichiometry N” value in data set [3] was found to be 2.
